Experimental data: PMC4923858

Biological target: T1, TβRII-GFP, P37173
T1 chain: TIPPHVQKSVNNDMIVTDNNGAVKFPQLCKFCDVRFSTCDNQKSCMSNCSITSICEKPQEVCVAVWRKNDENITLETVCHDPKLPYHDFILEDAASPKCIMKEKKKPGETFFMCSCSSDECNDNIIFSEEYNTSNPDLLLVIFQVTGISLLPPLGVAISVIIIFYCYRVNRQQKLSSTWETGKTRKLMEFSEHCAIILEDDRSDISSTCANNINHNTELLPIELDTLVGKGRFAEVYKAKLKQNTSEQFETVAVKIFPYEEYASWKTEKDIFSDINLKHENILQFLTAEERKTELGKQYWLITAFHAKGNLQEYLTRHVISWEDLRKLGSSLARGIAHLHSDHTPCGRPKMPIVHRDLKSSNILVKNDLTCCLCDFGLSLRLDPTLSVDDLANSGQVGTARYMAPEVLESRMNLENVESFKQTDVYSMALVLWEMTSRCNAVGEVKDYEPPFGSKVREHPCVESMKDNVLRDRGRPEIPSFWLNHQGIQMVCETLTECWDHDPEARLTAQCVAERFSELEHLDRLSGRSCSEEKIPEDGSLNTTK
Assay: single-molecule photobleaching step counting (TIRFM); TβRII-GFP on the membrane of fixed HeLa cells 4 h after transfection; after TGF-β1 10 ng/mL for 15 min at 37 °C; room temperature
Details: remark: other sources report otherwise

percent of spots bleaching in one step (monomers), after TGF-β1: 67.7%
percent of spots bleaching in three steps, after TGF-β1: 0.6%
percent of spots bleaching in two steps (dimers), after TGF-β1: 31.6%
B1: TβRII-GFP, P37173 23-567 (receptor)
chain: TIPPHVQKSVNNDMIVTDNNGAVKFPQLCKFCDVRFSTCDNQKSCMSNCSITSICEKPQEVCVAVWRKNDENITLETVCHDPKLPYHDFILEDAASPKCIMKEKKKPGETFFMCSCSSDECNDNIIFSEEYNTSNPDLLLVIFQVTGISLLPPLGVAISVIIIFYCYRVNRQQKLSSTWETGKTRKLMEFSEHCAIILEDDRSDISSTCANNINHNTELLPIELDTLVGKGRFAEVYKAKLKQNTSEQFETVAVKIFPYEEYASWKTEKDIFSDINLKHENILQFLTAEERKTELGKQYWLITAFHAKGNLQEYLTRHVISWEDLRKLGSSLARGIAHLHSDHTPCGRPKMPIVHRDLKSSNILVKNDLTCCLCDFGLSLRLDPTLSVDDLANSGQVGTARYMAPEVLESRMNLENVESFKQTDVYSMALVLWEMTSRCNAVGEVKDYEPPFGSKVREHPCVESMKDNVLRDRGRPEIPSFWLNHQGIQMVCETLTECWDHDPEARLTAQCVAERFSELEHLDRLSGRSCSEEKIPEDGSLNTTK
